Consider 72 sequences from the supplement of paper PMC10567573.

± gives the standard deviation.

The nature of this data set: protein stability index of a GFP-peptide fusion (GPS, HEK-293T) (PSI 1-6); higher = more stable.
[1] abbreviates: treatment: DMSO, c terminus: a fixed tail appended.
[2] abbreviates: treatment: MLN4924 1 uM, 8 h, c terminus: a fixed tail appended.
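Further: 24-mer peptide tiles fused after GFP, lentivirally expressed, FACS-sorted into six equal bins by GFP/DsRed ratio, decoded by Illumina sequencing, PSI is the read-weighted mean bin number.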

On to HVFIGDHSGQVTILKLEQENCTLV [WDFY2], for which the protein stability index reads like this: under setting [1], 2.09 ± 0.39; under setting [2], 2.19 ± 0.19.

In the case of CVSRNSHLTSVTSESEQEFLYKTA [CD207], the protein stability index stood at 3.34 ± 0.51 under setting [1] and 3.81 ± 0.17 under setting [2].

Turning to GGYGSSFGGVDGLLAGGEKATMQN [KRT17], the protein stability index was determined as 4.06 ± 0.12 under setting [1] and 4.395 ± 0.027 under setting [2].

In the case of RYDPQTNEWRMVASMSKRRCGVGV [KLHL20], the protein stability index was found to be 2.71 ± 0.16 under setting [1] and 2.75 ± 0.3 under setting [2].

As to DGTGRMPTLKKCEDVARPTQRLWD [GALNT9], the protein stability index by setting is: under setting [1], 4.01 ± 0.31; under setting [2], 4.13 ± 0.19.

On to SNFNYFYHRETEGEEQSQYMHVGS [KCNA3], for which the protein stability index under setting [1] was determined as 3.89 ± 0.08 and the protein stability index under setting [2] was found to be 3.88 ± 0.48.

Take REDDKLVVECVMKGVTSTRVYERA [FABP4]: the protein stability index under setting [1] turned out to be 3.68 ± 0.38 and the protein stability index under setting [2] was 4.09 ± 0.29.

Consider EQDMERRKADFKAGKALVISGREV [ZC3H15], for which the protein stability index is, setting by setting: under setting [1], 4.8 ± 0.3; under setting [2], 4.89 ± 0.18.

Regarding QKEQGLSDNILSPVMNGGVQTWTQ [PDZK1], the protein stability index under setting [1] came to 2.84 ± 0.5 and the protein stability index under setting [2] stood at 3.32 ± 0.71.

Turning to DLKPTGEIPKQVKVKKLKNLKTLD [DENND6A], the protein stability index by setting is: under setting [1], 4.24 ± 0.25; under setting [2], 4.24 ± 0.31.

The sequence RLKTRSWAGERSRRELCSRLQDQ [CDC25B] gave a protein stability index (treatment: DMSO, c terminus: native) of 4.02 ± 0.17 and a protein stability index (treatment: MLN4924 1 uM, 8 h, c terminus: native) of 4.13 ± 0.15.

As for EEVDEDGSGTIDFEEFLVMMVRQM [TNNC2], the protein stability index is, setting by setting: under setting [1], 3.52 ± 0.15; under setting [2], 3.79 ± 0.44.

Take SQPAVELVSGSQSALGPPPAASNS [CLINT1]: the protein stability index under setting [1] worked out at 5.04 ± 0.31 and the protein stability index under setting [2] came to 5.21 ± 0.33.

Sequence EEVSSTVHIETFTTRHGEVGSALH [C10orf62] yielded a protein stability index under setting [1] of 4.43 ± 0.36 and a protein stability index under setting [2] of 4.57 ± 0.19.

SLEPFRPQQAPQDDGSQDPEVLDR [PWWP2B]: the protein stability index under setting [1] worked out at 5.51 ± 0.16 and the protein stability index under setting [2] was 5.53 ± 0.14.

In turn, TRGDADMYDLPKKEDALLYQSKGY [EMD] had a protein stability index under setting [1] of 4.19 ± 0.14 and a protein stability index under setting [2] of 4.38 ± 0.15.

Turning to SALQSLLQHLIGLSNLTHVLYPVP [PRAME], the protein stability index came out at 3.36 ± 0.28 under setting [1] and 3.2 ± 0.16 under setting [2].

With CREQLDIMNDLSNRVWSISQEPDP [TRIM14], the protein stability index is 3.43 ± 0.28 under setting [1] and 3.43 ± 0.21 under setting [2].

Take SFGGEWSAPDTMKRYSMYLTPKGG [TRIM29]: the protein stability index stood at 3.09 ± 0.51 under setting [1] and 3.09 ± 0.48 under setting [2].

Take EPSWECKFDHIEVRDGPFGFSPII [NETO1]: the protein stability index under setting [1] is 2.36 ± 0.36 and the protein stability index under setting [2] was 2.3 ± 0.22.

Take LDSGIHSGATTTAPSLSGKGNPEE [CTNNB1]: the protein stability index runs as follows: under setting [1], 5.64 ± 0.29; under setting [2], 5.54 ± 0.21.

Consider EIIRVILKLYEQWKNFDERKEMAT [CCNC], for which the protein stability index runs as follows: under setting [1], 2.09 ± 0.52; under setting [2], 2.38 ± 0.3.

TRKQAAKKVAPLMAKAIRDYKGRF [ELOA2] gave a protein stability index under setting [1] of 3.25 ± 0.37 and a protein stability index under setting [2] of 3.39 ± 0.36.

On to KKNGLYLSLVLGNVNVTLLSKQAK [TMEM120A], for which the protein stability index turned out to be 2.51 ± 0.64 under setting [1] and 2.57 ± 0.35 under setting [2].

Turning to PLQNQKILKRTGQRYEHGRTLKSY [ZNF649], the protein stability index was found to be 2.89 ± 0.45 under setting [1] and 3.53 ± 0.41 under setting [2].

For the sequence KRLSRFDIEMSMRGDIFERIVHLQ [NLN], the protein stability index stood at 1.84 ± 0.33 under setting [1] and 2 ± 0.026 under setting [2].

As to LDITNPKAVLENALRNFACLTTGD [UFD1], the protein stability index is, setting by setting: under setting [1], 2.65 ± 0.21; under setting [2], 2.46 ± 0.19.

As for NHSLARHADILAAVETRLSLLNMT [FBXO28], the protein stability index reads like this: under setting [1], 2.53 ± 0.13; under setting [2], 2.71 ± 0.19.

As for MGRKKKKQLKPWCWYCNRDFDDEK [ZNF207], the protein stability index reads like this: under setting [1], 2.39 ± 0.33; under setting [2], 3.05 ± 0.34.

MGPKTLPQLAGKWQVLCMLSLCCW [PCDHGC5] showed a protein stability index under setting [1] of 3.21 ± 0.49 and a protein stability index under setting [2] of 3.17 ± 0.76.

Take QLGDLHTCLMMDMKACQEDDVRLL [INTS3]: the protein stability index runs as follows: under setting [1], 3.41 ± 0.18; under setting [2], 3.56 ± 0.19.

SFVCWSRGFMEMNGRGELVESLKR [AUP1]: the protein stability index came out at 2.36 ± 0.51 under setting [1] and 2.2 ± 0.27 under setting [2].

CVKNELLPSHPLELSEKNFQLNQD [POMP]: the protein stability index is, setting by setting: under setting [1], 4.42 ± 0.1; under setting [2], 4.57 ± 0.14.

For RKSLALDIVDEDVKLMMSTLPKSL [MYBL2], the protein stability index by setting is: under setting [1], 2.98 ± 0.27; under setting [2], 2.76 ± 0.29.

On to KEQNNLKQLEFGLKEAPVQDQGYK [ZNF8], for which the protein stability index was determined as 5.08 ± 0.2 under setting [1] and 5.25 ± 0.17 under setting [2].

Take KLNKPPETLITTIDSSSSWWTNWV [CYB5A]: the protein stability index under setting [1] turned out to be 2.64 ± 0.23 and the protein stability index under setting [2] is 2.47 ± 0.35.

With CRDGEVLLRLSKHGPGHETPMTIP [ACSBG2], the protein stability index reads like this: under setting [1], 2.62 ± 0.4; under setting [2], 2.66 ± 0.63.

Regarding VRDSDDNSPLHIAALNNHPDIMNL [FEM1C], the protein stability index by setting is: under setting [1], 4.26 ± 0.24; under setting [2], 4.42 ± 0.2.

For the sequence QMTNIGVYVSNMTDKLVTPGKYFS [IQUB], the protein stability index worked out at 2.31 ± 0.5 under setting [1] and 2.49 ± 0.28 under setting [2].

As for YSLMKRQMMSATAQNREPESVEQL [SNX8], the protein stability index runs as follows: under setting [1], 4.37 ± 0.38; under setting [2], 4.48 ± 0.19.

The sequence DSEQNGQVTCSILAYLPFKLEKSI [PCDHGA10] came in with a protein stability index under setting [1] of 2.16 ± 0.24 and a protein stability index under setting [2] of 2.27 ± 0.41.

Take DVKARLEGEIATYRHLLEGEDCKL [KRT36]: the protein stability index runs as follows: under setting [1], 4.22 ± 0.21; under setting [2], 4.29 ± 0.075.

As to IERCIFPERIYQGSSGSYFVKDPQ [PI4K2A], the protein stability index was 3.25 ± 0.22 under setting [1] and 3.2 ± 0.35 under setting [2].

PEAISPDLVKKIRDFHRKILTLPE [TRIM15]: the protein stability index amounted to 2.51 ± 0.17 under setting [1] and 2.68 ± 0.37 under setting [2].

In the case of RGHQNWVYSCAFSPDSSMLCSVGA [WSB1], the protein stability index is, setting by setting: under setting [1], 2.07 ± 0.18; under setting [2], 2.03 ± 0.23.

Take YKGELFDKTPVLLTDYPVDLDEIA [MYORG]: the protein stability index reads like this: under setting [1], 3.73 ± 0.28; under setting [2], 3.75 ± 0.16.

FTAKHANKVKVLDAPVPDCLGVHC [FSD1]: the protein stability index is, setting by setting: under setting [1], 2.75 ± 0.26; under setting [2], 3.04 ± 0.31.

In the case of LDYSFGDHTSEAVRNLFGLDPSSG [PCDHGC5], the protein stability index runs as follows: under setting [1], 3.55 ± 0.13; under setting [2], 3.54 ± 0.38.

On to TVTSLKTKVGGTNPNGGSFEEVLS [TPD52L1], for which the protein stability index by setting is: under setting [1], 3.811 ± 0.036; under setting [2], 3.82 ± 0.18.

As to KGTENLQRAQAEVLQSVRELSRSR [FCHSD1], the protein stability index turned out to be 4.61 ± 0.27 under setting [1] and 4.41 ± 0.38 under setting [2].

Take GKDSRWLPSLVLARLVFVPLLLLC [SLC29A1]: the protein stability index under setting [1] came out at 2.68 ± 0.78 and the protein stability index under setting [2] was determined as 2.48 ± 0.45.

On to AFPFNMQELVLKVRIQNPSLREND [ANKRD40], for which the protein stability index runs as follows: under setting [1], 2.41 ± 0.46; under setting [2], 2.33 ± 0.41.

Consider RDDLDRLGVFLDYEAGVLAFYDVT [TRIM14], for which the protein stability index came out at 2.55 ± 0.31 under setting [1] and 2.06 ± 0.53 under setting [2].

Take TGLSGGKRPSQEEDTQSIGPKVQR [CRY1]: the protein stability index reads like this: under setting [1], 5 ± 0.33; under setting [2], 5.04 ± 0.23.

As to FTQNQIEVLENVFRVNCYPGIDIR [HESX1], the protein stability index reads like this: under setting [1], 2.42 ± 0.4; under setting [2], 2.14 ± 0.68.

NWQPAVPLMHMLHLSGALDFPRQS [SPATS1]: the protein stability index was determined as 2.07 ± 0.39 under setting [1] and 2.15 ± 0.52 under setting [2].

As for LHHVKTMWYPEIKHFCPRAPVILV [RHOBTB2], the protein stability index worked out at 2.65 ± 0.58 under setting [1] and 2.58 ± 0.87 under setting [2].

On to QAALRAARLRHQELFRLRGIKAQV [NOP53], for which the protein stability index was determined as 2.4 ± 0.19 under setting [1] and 2.86 ± 0.57 under setting [2].

Take KVYTHPKWNTQTKARSYSYPHCTG [ZC2HC1C]: the protein stability index reads like this: under setting [1], 2.73 ± 0.36; under setting [2], 2.9 ± 0.39.

For the sequence PAQVPREVLKVQTHLENPTRYHLQ [TFE3], the protein stability index runs as follows: under setting [1], 3.75 ± 0.43; under setting [2], 3.82 ± 0.093.

ALFFKNIMNIIDIVSILPYFITLG [KCNA4]: the protein stability index is 2.86 ± 0.21 under setting [1] and 3.43 ± 0.4 under setting [2].

Sequence LRKSIFSESRKPTVSIMEPGETRR [TRIM29] had a protein stability index under setting [1] of 3.66 ± 0.32 and a protein stability index under setting [2] of 3.93 ± 0.58.

EKVKKRPGGRPEVIYNYVQRPFIR [BTBD10]: the protein stability index turned out to be 2.9 ± 0.31 under setting [1] and 2.73 ± 0.63 under setting [2].

Take VGGGFGGGFGGGDGGLLSGNEKIT [KRT15]: the protein stability index is 4.04 ± 0.39 under setting [1] and 4.16 ± 0.14 under setting [2].

The sequence TLLAVGCNDGRIVIWDFLTRGIAK [RBBP5] gave a protein stability index under setting [1] of 2.65 ± 0.51 and a protein stability index under setting [2] of 2.55 ± 0.84.

Take LLSQKKTISFLGCAIQMFSFLFLG [OR10K2]: the protein stability index by setting is: under setting [1], 2.5 ± 0.69; under setting [2], 2.41 ± 0.25.

On to GHHQGMPGYLPGAMPPYGQGPPMV [ZNF207], for which the protein stability index by setting is: under setting [1], 2.86 ± 0.43; under setting [2], 2.84 ± 0.2.

Regarding VSAQRERPRRRDGPEHATRLNGTA [DVL3], the protein stability index reads like this: under setting [1], 4.7 ± 0.17; under setting [2], 4.81 ± 0.21.

For the sequence AGRLMRPSVKYLSHPRVQSGCDKE [RNF180], the protein stability index reads like this: under setting [1], 4.06 ± 0.21; under setting [2], 4.11 ± 0.21.

Regarding AIFSAPAFPAAVSSMKKFCRPLLP [PSD2], the protein stability index reads like this: under setting [1], 2.58 ± 0.12; under setting [2], 2.3 ± 0.28.

For IEDSTGLNRPGPAPLSSRKHVLYV [TCF25], the protein stability index is 2.27 ± 0.45 under setting [1] and 2.35 ± 0.31 under setting [2].

KESMSEADRAQKMDGESEEEQESV [EHMT1] registered a protein stability index under setting [1] of 5.71 ± 0.35 and a protein stability index under setting [2] of 5.59 ± 0.23.
